{"source": "paper PMC6637015", "key": {"[1]": {"target": "c-Abl (UniProt P00520)", "assay": "streptavidin precipitation of ligated FcRL1, c-Abl blot", "settings": "reference: wild type; sites Y281"}, "[2]": {"target": "c-Abl SH2 domain, 127-217 (UniProt P00520)", "assay": "GST-SH2 pull-down from cell lysate", "settings": "reference: wild type; sites Y281"}, "[3]": {"target": "c-Abl (UniProt P00520)", "assay": "GSH-bead precipitation of co-expressed c-Abl–mCherry-GST", "settings": "reference: wild type, sites Y281"}}, "data": [{"substance": "FcRL1 (Fc receptor-like 1) (from UniProt Q8R4Y0) Y281F", "values": [{"measurement": "binding against the reference", "setting": "[1]", "value": "lost"}, {"measurement": "binding against the reference", "setting": "[2]", "value": "lost"}]}, {"substance": "FcRL1 (Fc receptor-like 1) (from UniProt Q8R4Y0) Y281F, BCR ligation", "values": [{"measurement": "binding against the reference", "setting": "[3]; BCR ligation", "value": "lost"}]}, {"substance": "FcRL1 (Fc receptor-like 1) (from UniProt Q8R4Y0) Y281F, FcRL1 ligation", "values": [{"measurement": "binding against the reference", "setting": "[3]; FcRL1 ligation", "value": "lost"}]}]}
